Literature values as cited in paper PMC3134471.

Biological target: luteinizing hormone receptor (Homo sapiens) (UniProt P22888)
UniProt P22888, sequence (P22888 27-699): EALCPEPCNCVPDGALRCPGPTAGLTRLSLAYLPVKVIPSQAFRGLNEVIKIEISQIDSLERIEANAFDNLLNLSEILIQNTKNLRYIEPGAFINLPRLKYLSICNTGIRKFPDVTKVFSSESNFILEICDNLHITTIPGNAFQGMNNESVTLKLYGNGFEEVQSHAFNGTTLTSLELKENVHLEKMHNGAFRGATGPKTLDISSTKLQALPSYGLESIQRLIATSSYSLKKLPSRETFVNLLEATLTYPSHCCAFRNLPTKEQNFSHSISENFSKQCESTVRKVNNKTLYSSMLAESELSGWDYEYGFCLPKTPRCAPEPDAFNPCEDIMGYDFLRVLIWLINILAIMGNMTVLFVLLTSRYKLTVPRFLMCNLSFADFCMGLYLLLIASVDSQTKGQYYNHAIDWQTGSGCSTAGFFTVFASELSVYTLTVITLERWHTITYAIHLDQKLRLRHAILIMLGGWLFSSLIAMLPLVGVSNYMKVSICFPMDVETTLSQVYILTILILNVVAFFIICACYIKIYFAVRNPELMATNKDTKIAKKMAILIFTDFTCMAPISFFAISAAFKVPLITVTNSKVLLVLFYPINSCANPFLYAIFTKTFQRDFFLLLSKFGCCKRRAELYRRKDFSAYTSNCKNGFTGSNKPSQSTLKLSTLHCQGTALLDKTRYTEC

Substance: human chorionic gonadotropin (from UniProt P01215)
- Kd: 0.3 nM
